T1: recombinant B. taurus αS1-casein expressed from pMOZ1066 (GY1 signal peptide, αS1-casein, FLAG tag, 6 histidine tag, HDEL peptide)
T1 sequence: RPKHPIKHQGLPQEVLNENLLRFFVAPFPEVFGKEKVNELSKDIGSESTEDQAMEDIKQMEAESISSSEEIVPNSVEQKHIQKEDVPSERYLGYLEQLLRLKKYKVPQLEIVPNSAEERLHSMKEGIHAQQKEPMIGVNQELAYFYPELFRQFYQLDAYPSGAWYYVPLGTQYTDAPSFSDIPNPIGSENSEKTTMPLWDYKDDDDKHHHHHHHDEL

T2: recombinant B. taurus β-casein expressed from pMOZ1066 (GY1 signal peptide, β-casein, FLAG tag, 6 histidine tag, HDEL peptide)
T2 sequence: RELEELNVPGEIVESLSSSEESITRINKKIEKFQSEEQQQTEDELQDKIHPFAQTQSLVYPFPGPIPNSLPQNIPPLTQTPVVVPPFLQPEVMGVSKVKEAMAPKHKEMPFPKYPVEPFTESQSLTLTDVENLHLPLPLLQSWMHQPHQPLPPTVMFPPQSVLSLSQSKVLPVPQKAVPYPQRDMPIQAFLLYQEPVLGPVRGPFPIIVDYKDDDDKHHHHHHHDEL

T3: recombinant B. taurus αS1-casein expressed from pMOZ1066 (GY1 signal peptide, αS1-casein, FLAG tag, 6 … (B. taurus))
T3 construct: also called Alpha S1 casein; alphaS1 casein
T3 chain: T1 sequence

T4: recombinant B. taurus Beta Casein expressed from pMOZ702 (signal peptide, beta casein, HA tag, 6 histidine tag, HDEL peptide)
T4 chain: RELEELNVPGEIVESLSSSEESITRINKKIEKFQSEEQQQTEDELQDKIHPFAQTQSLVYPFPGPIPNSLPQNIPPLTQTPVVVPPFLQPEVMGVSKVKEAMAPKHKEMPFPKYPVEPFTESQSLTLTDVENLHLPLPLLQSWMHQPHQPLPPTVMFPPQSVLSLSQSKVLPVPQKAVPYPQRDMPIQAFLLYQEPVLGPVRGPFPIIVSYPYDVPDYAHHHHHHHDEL

T5: recombinant B. taurus Beta Casein expressed from pMOZ702 (signal peptide, beta casein, HA tag, 6 histidine tag, HDEL peptide)
T5 sequence: T4 chain

B1: recombinant B. taurus β-casein expressed from pMOZ1066 (GY1 signal peptide, β-casein, FLAG tag, 6 histidine tag, HDEL peptide) (other)
chain: T2 sequence
modifications: S50-p (phosphosite detected by mass spectrometry in 1066 milk; numbering not stated)
notes: Co-expressed with BtFam20C in soybean; also called Beta casein
B2: recombinant H. sapiens Fam20C expressed from pMOZ11 (protein)
chain: LDLLPRLERRGARPSGEPGCSCAQPAAEVAAPGWAQVRGRPGEPPAASSAAGDAGWPNKHTLRILQDFSSDPSSNLSSHSLEKLPPAAEPAERALRGRDPGALRPHDPAHRPLLRDPGPRRSESPPGPGGDASLLARLFEHPLYRVAVPPLTEEDVLFNVNSDTRLSPKAAENPDWPHAGAEGAEFLSPGEAAVDSYPNWLKFHIGINRYELYSRHNPAIEALLHDLSSQRITSVAMKSGGTQLKLIMTFQNYGQALFKPMKQTREQETPPDFFYFSDYERHNAEIAAFHLDRILDFRRVPPVAGRMVNMTKEIRDVTRDKKLWRTFFISPANNICFYGECSYYCSTEHALCGKPDQIEGSLAAFLPDLSLAKRKTWRNPWRRSYHKRKKAEWEVDPDYCEEVKQTPPYDSSHRILDVMDMTIFDFLMGNMDRHHYETFEKFGNETFIIHLDNGRGFGKYSHDELSILVPLQQCCRIRKSTYLRLQLLAKEEYKLSLLMAESLRGDQVAPVLYQPHLEALDRRLRVVLKAVRDCVERNGLHSVVDDDLDTEHRAASARHDEL
B3: recombinant B. taurus Fam20A expressed from pMOZ15 (enzyme, from a related filing)
chain: MHVSSHLGPRVRSRLQPRERPLGCPCARRAASPAPGPAPSAPRRVEPSGGGDPGSKLRALFAHPLYNEPEEPPLLGPEDSLLAGPEALRYYRRKVARWNRRRKMYKEQLNLTSPEPPVQLRQEASWVQFHLGINRHGLYPRSSPVVSKLLQDMRHFPTISADYSQDEKALLGACDCSQIVKPSGVHLKLVLRFSDFGKAMFKPMRQQRDEETPEDFFYFIDFQRHNAEIAAFHLDRILDFRRVPPTVGRLVNVTREILEVTRNEILQSVFFVSPANNVCFFAKCPYMCKTEYAVCGSPHLLEGSLSAFLPSLNLAPRFSMPSPWIRSYSLAGREEWEVNPLYCEAVKQAYPHNSSSRLLNIIDMAIFDFLIGNMDRHHYEMFTKFGEDGFLIHLDNARGFGRHSHDEVSILAPLFQCCRIKRKTLLHLQLLAQADYRLSDVMRESLLEDQLSPVLTEPHLLALDRRLQTVLRTVQDCIEAHGEQSVVADGPVGQWAPDSSRANATSHDEL
B4: recombinant B. taurus Fam20C expressed from pMOZ14 (enzyme, from a related filing)
chain: MLLPKLERSAARPSGEPGCSCAQPAAEAAAPGWAQARGHPGGELEAAASAAGDAGWPNKHTLRILQDFSSDPSSNLTSHSLEKLPPAAEAAEGAPPGQDPGVRRPPDPAHRPLPRDPGPRGPVLPPGLSGDGSLLTRLFQHPLYQVPIPPLTEGDVLFNVNSDIRFNPKAATAENPDWPHEGPEDEFLPTGEAAVDSYPNWLKFHIGINRYELYSRHNPAVGALLQDLGTQKITSVAMKSGGTQLKLIMTFQNYGQALFKPMKQTREQETPPDFFYFSDYERHNAEIAAFHLDRILDFRRVPPVAGRLVNMTKEIRDVTRDKKLWRTFFISPANNVCFYGECSYYCSTEHALCGKPDQIEGSLAAFLPDLALAKRKTWRNPWRRSYHKRKKAEWEVDPDYCEEVRQTPPYDSSHRLLDVMDMTIFDFLMGNMDRHHYETFEKFGNETFIIHLDNGRGFGKHSHDELSILVPLQQCCRIRRSTYLRLQLLAQEEHRLSLLMAEALRADRVAPVLFQPHLEALDRRLRIVLRAVGDCVEKDGLHSVVEDDLGPEHRAAAGRHDEL
B5: recombinant H. sapiens Fam20A expressed from pMOZ12 (protein)
chain: QLRPRERPRGCPCTGRASSLARDSAAAASDPGTIVHNFSRTEPRTEPAGGSHSGSSSKLQALFAHPLYNVPEEPPLLGAEDSLLASQEALRYYRRKVARWNRRHKMYREQMNLTSLDPPLQLRLEASWVQFHLGINRHGLYSRSSPVVSKLLQDMRHFPTISADYSQDEKALLGACDCTQIVKPSGVHLKLVLRFSDFGKAMFKPMRQQRDEETPVDFFYFIDFQRHNAEIAAFHLDRILDFRRVPPTVGRIVNVTKEILEVTKNEILQSVFFVSPASNVCFFAKCPYMCKTEYAVCGNPHLLEGSLSAFLPSLNLAPRLSVPNPWIRSYTLAGKEEWEVNPLYCDTVKQIYPYNNSQRLLNVIDMAIFDFLIGNMDRHHYEMFTKFGDDGFLIHLDNARGFGRHSHDEISILSPLSQCCMIKKKTLLHLQLLAQADYRLSDVMRESLLEDQLSPVLTEPHLLALDRRLQTILRTVEGCIVAHGQQSVIVDGPVEQLAPDSGQANLTSHDEL

Experiments:
[1] = test system: T1, recombinant B. taurus αS1-casein expressed from pMOZ1066 (GY1 signal peptide, αS1-casein, FLAG tag, 6 histidine tag, HDEL peptide)
[2] = test system: T2, recombinant B. taurus β-casein expressed from pMOZ1066 (GY1 signal peptide, β-casein, FLAG tag, 6 histidine tag, HDEL peptide)
[3] = molecular target: T3, recombinant B. taurus αS1-casein …; assay: TEM with FLAG immunogold labelling of soy embryos; micelle of αS1, β and κ casein in vivo
[4] = molecular target: T4, recombinant B. taurus Beta Casein …
[5] = test system: T5, recombinant B. taurus Beta Casein expressed from pMOZ702 (signal peptide, beta casein, HA tag, 6 histidine tag, HDEL peptide); remark: listed apart in the source

Molecule	upward band shift of beta casein on anti-beta-casein Western blot (2 human kinases together, pMOZ702+pMOZ11+pMOZ12) [4]	upward band shift of beta casein on anti-beta-casein Western blot (co-expressed with HsFam20C and HsFam20A together, pMOZ702+pMOZ11+pMOZ12) [4]	upward band shift of beta casein on anti-beta-casein Western blot (2 bovine kinases together, pMOZ702+pMOZ14+pMOZ15) [5]	further results
recombinant B. taurus Fam20C expressed from pMOZ1066				phosphorylation by mass spectrometry in 1066 milk [1]: Phosphorylation of alphaSI casein was not detected in 1066 milk (data not shown); phosphosite detected by mass spectrometry in 1066 milk [2]: only one phosphosite S50-p was detected to be phosphorylated in beta casein in both 1066 milk and raw milk (data not shown)
B1				binding result [3]: binds
B2	In lanes containing beta casein coexpressed with 1 human kinase, 2 human kinases, 1 bovine kinase or 2 bovine kinases the bands are shifted upward on the gel relative to the sample transformed with only beta casein	In lanes containing beta casein coexpressed with 2 human kinases the bands are shifted upward on the gel relative to the sample transformed with only beta casein		
B3			In lanes containing beta casein coexpressed with 1 human kinase, 2 human kinases, 1 bovine kinase or 2 bovine kinases the bands are shifted upward on the gel relative to the sample transformed with only beta casein	
B4			In lanes containing beta casein coexpressed with 1 human kinase, 2 human kinases, 1 bovine kinase or 2 bovine kinases the bands are shifted upward on the gel relative to the sample transformed with only beta casein	
B5	In lanes containing beta casein coexpressed with 1 human kinase, 2 human kinases, 1 bovine kinase or 2 bovine kinases the bands are shifted upward on the gel relative to the sample transformed with only beta casein	In lanes containing beta casein coexpressed with 2 human kinases the bands are shifted upward on the gel relative to the sample transformed with only beta casein		

Reference: patent US20250034219A1 (MOZZA FOODS, published 2025)
